Common to all, as to experiment: ELISA, peptide coated on plate, anti-Fc HRP detection
Background: ELISA stands for enzyme-linked immunosorbent assay.

Assay [1] addresses T1, recombinant 20 mer MUC1 glycosylated-biotin (Tn (GalNac) antigen or sialyl Tn (Neu5Acα2-6GalNAc) antigen modifications on some of the S/T residues; biotin conjugated to the N-terminus).
T1 construct: also called 20mer glycosylated MUC1 peptide
As to the method: (§1) MUC1 ELISA: Antigens were coated directly on a Streptavidin (Pierce, 15500) or Maxisorp (VWR, 62409-024) 96-well plate at 100ng/well in PBS. Coated plates were incubated at 4° C. overnight. The plates were blocked with casein blocking buffer (Thermo Fisher, 37528) and washed with PBS-Tween-20. Antibodies were serially diluted in PBS, added to the coated wells and incubated for 1h at room temperature with shaking. To test for stickiness, antibodies were also added to uncoated, blocked wells. Peroxidase (HRP)-conjugated anti-Fc secondary (Jackson Immunoresearch, #109-035-098) was used for detection, followed by a […] substrate (Thermo Fisher, 34028) and H2S04 quench. Absorbance was read at 450 nm on a Molecular Devices plate reader.

Another assay addresses T2, decoy peptide (Tn (GalNac) antigen or sialyl Tn (Neu5Acα2-6GalNAc) antigen modifications on some of the S/T residues).
T2 construct: also called glycosylated decoy peptide
T2 peptide: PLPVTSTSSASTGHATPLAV
As to the method: as §1

The target in assay [2] is T3, recombinant 60 mer MUC1 non-glycosylated-biotin (biotin conjugated to the N-terminus).
T3 construct: Not glycosylated; also called 60mer MUC1 non-glycosylated peptide
The method, then:
as §1

The values that follow come from patent US20250084182A1 (R P SCHERER TECHNOLOGIES, published 2025).

T3 sequence (peptide, as listed by the source): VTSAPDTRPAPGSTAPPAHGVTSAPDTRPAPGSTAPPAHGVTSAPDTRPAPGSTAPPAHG
T1 sequence (peptide, as listed by the source): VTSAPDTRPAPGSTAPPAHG

B1: MUC1 gB06 (antibody, V domains shown)
VH: EVQLVQSGAEVKKPGATVKISCKVSGYTFTDHTMHWIKQRPGKGLEWMGYFYPRDDSTNYNEKFKGRVTLTADKSTDTAYMELSSLRSEDTAVYYCARGLRYALDYWGQGTLVTVSS
VL: EIVLTQSPATLSLSPGERATLSCRASSSVSSSYLYWYQQKPGQAPRLWIYGTSNLASGVPARFSGSGSGTDYTLTISSLEPEDAAVYYCHQYAWSPPTFGQGTKLEIK
notes: Monoclonal antibody; also called B06 antibody; anti-MUC1 antibody B06
On to B1, for which the binding result in assay [1] was “binds”; with decoy peptide, “no binding”; in assay [2] it was “no binding”.

B2: MUC1 H02 (antibody, V domains shown)
VH: EVQLVQSGAEVKKPGATVKISCKVSGYTFTDHTMHWIKQRPGKGLEWMGYFYPRDDSTNYNEKFKGRVTLTADKSTDTAYMELSSLRSEDTAVYYCARGLRYALDYWGQGTLVTVSS
VL: EIVLTQSPATLSLSPGERATLSCRASSSVSSSYLYWYQQKPGQAPRLWIIGTSNLASGVPARFSGSGSGTDYTLTISSLEPEDAAVYYCHQYSWSPPTFGQGTKLEIK
notes: Monoclonal antibody; It was detected with an anti-human Fc secondary, and DSF reports CH2 and Fab regions
On to B2, for which the figures for the binding result (in assay [1]; with decoy peptide; in assay [2]) were “binds”, “no binding” and “no binding”, respectively.

B3: MUC1 G12 (antibody, V domains shown)
VH: EVQLVQSGAEVKKPGATVKISCKVSGYTFTDHTMHWIKQRPGKGLEWMGYFYPRDDSTNYNEKFKGRVTLTADKSTDTAYMELSSLRSEDTAVYYCARGLRYALDYWGQGTLVTVSS
VL: EIVLTQSPATLSLSPGERATLSCRASSSVGSSNLYWYQQKPGQAPRLWIYRSTKLASGVPARFSGSGSGTDYTLTISSLEPEDAAVYYCHQYRWSPPTFGQGTKLEIK
notes: as for B2
B3: the binding result in assay [1] is on record as “binds”; with decoy peptide it was “no binding”; in assay [2], “no binding”.
